Consider 2 molecules from patent publication US20250205362A1, “LIPID NANOPARTICLES” (NATIONAL UNIVERSITY CORPORATION HOKKAIDO UNIVERSITY, priority 2022, published 2025).

For orientation: pKa means the pH at which an ionisable group is half protonated.

Data set [1] is described as follows: Average particle diameter, PdI and zeta potential of lipid nanoparticles (dynamic light scattering). Type of data set: physicochemical. As to the method: The mean particle diameter (number average value), ζ-mean particle diameter, and polydispersity index (PdI) of the lipid nanoparticles in PBS(−) (pH 7.4), as well as the zeta potential in 10 mM HEPES buffer (pH 7.4), were measured using an analyzing device, Zetasizer Nano ZS ZEN3600 (Malvern), which utilizes dynamic light scattering.

Data set [2] can be described thus: Encapsulation rate of lipid nanoparticles (Ribogreen). Type of data set: physicochemical. How it is done:
The encapsulation rate of the lipid nanoparticles was calculated by measuring the amount of encapsulated nucleic acid (the amount of ssODN in the case of RNP-ssODN) using an RNA intercalator Ribogreen (manufactured by Life Technologies).

A further data set has as its system BALB/c mice. The data set can be described thus: Measurement of Fluc activity in tissues after iv Fluc mRNA-loaded lipid nanoparticles. Type of data set: in vivo, mouse. To be noted: Example 1, FIG. 1; Fluc mRNA-loaded LNP 50/10/40/1.5; Balb/c mice iv 0.01 mg mRNA/kg, 6 hours. How it is done: First, lipid nanoparticles encapsulating Fluc mRNA (Fluc mRNA-loaded lipid nanoparticles) were intravenously injected into BALB/c mice (female, 4 weeks old) at a dose of 0.01 mg mRNA/kg body weight. Six hours after intravenous injection, the mice were euthanized, and each tissue was collected, frozen in liquid nitrogen, and stored at −80° C. The tissues were homogenized in passive lysis buffer (Promega) using a bead cell disrupter (Micro Smash MS-100R, TOMY Seiko). Tissue debris was removed by centrifugation and the supernatant was collected. Fluc activity in the supernatant was measured using a luciferase assay system (E1500, Promega) according to the manufacturer's protocol. Luminescence was measured using a luminometer (Luminescencer-PSN, ATTO). The protein concentration was determined using a commercially available measurement kit (BCA Protein Assay Kit, Pierce). Fluc activity was expressed as relative light units (RLU) per mg of protein.

A short description of data set [3]: pKa of lipid nanoparticles (TNS). To be noted: apparent pKa of Fluc mRNA-loaded LNP; 50/10/40/1.5 mol%; Table 5.
Protocol: The pKa of the lipid nanoparticles was measured using p-Toluenesulfonic acid (TNS). First, TNS (final concentration: 0.75 μM) and lipid nanoparticles (final concentration: 30 μM) were mixed in buffer solutions (200 mL) adjusted to various pH values (pH 3.5 to 9.5). The buffer solutions used were: 20 mM citrate buffer solution, 20 mM sodium phosphate buffer solution, or 20 mM Tris-HCl buffer solution containing 130 mM NaCl. The fluorescence intensity of the prepared mixture was measured using a spectrofluorometer (VarioskanLux, Thermo Fisher Scientific) at the setting of λex=321 nm and λem=447 nm. The highest and lowest measured values were taken as 100% and 0% charge rate, respectively, and the pH showing a 50% charge rate was calculated as the apparent pKa. The percentage of the contained cationically charged pH-sensitive cationic lipid was calculated using the Henderson-Hasselbalch equation.
For data set [4], the system named is TTR gene. The data set can be described thus: Measurement of TTR-KO activity (serum TTR protein, ELISA). The data set is classed as in vivo, mouse. The procedure, abridged:
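Female BALB/c mice (4 weeks) received Cas9/sgTTR-RNP-loaded lipid nanoparticles i.v. at the indicated doses. Serum TTR protein measured by ELISA one week later. TTR-KO activity expressed as serum TTR (%) relative to untreated mice set at 100%.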
A general note: An ELISA detects its analyte on a solid surface through an enzyme-linked reagent.

Data set [5] can be described thus: Evaluation of biodistribution (fluorescently labeled RNP-ssODN). Type of data set: in vivo, mouse. To be noted: mice iv 2 mg RNP/kg, 1 hour; labeled TTR-RNP-ssODN in CL4H6 LNP (ssODN(−): free RNP, no LNP). How it is done:
For fluorescent labeling of lipid nanoparticles, the RNP-ssODN solution described above was mixed with a three-fold molar amount of a fluorescent molecule (DyLight 650 NHS ester) in DMSO and incubated for 30 min at ambient temperature in the dark. Unreacted fluorescent molecules were removed by ultrafiltration (Amicon Ultra-0.5, MWCO 3 kDa, Millipore).
Lipid nanoparticles encapsulating the obtained fluorescently labeled RNP-ssODN (fluorescently labeled RNP-ssODN-loaded lipid nanoparticles) were intravenously injected into BALB/c mice (female, 4 weeks old) at 2 mg RNP/kg body weight. One hour after intravenous injection, the mice were euthanized and various tissues, including blood, were collected. The collected blood was immediately diluted with 1% sodium dodecyl sulfate (SDS) solution. The collected tissues were immediately weighed and then homogenized in 1% sodium dodecyl sulfate (SDS) solution. The resulting homogenates were transferred to a black 96-well plate, and fluorescence was measured using a microplate reader (VarioskanLux, Thermo Fisher Scientific) at settings of λex=652 nm and λem=672 nm. Calibration curves were generated using fluorescently labeled RNP-ssODN-loaded lipid nanoparticles and blood or tissue homogenates similarly prepared from untreated mice. Biodistribution was expressed as the percentage of injected dose per tissue or blood (% injected dose).

A further data set deals with dsDNA from the TTR locus. The data set can be described thus: In vitro DNA cleavage activity. The data set is classed as biochemical, mouse. To be noted: n=3. The source says: Genomic DNA was collected and purified from BALB/c mouse liver tissue using a commercially available nucleic acid extraction kit (NucleoSpin Tissue, MACHEREY-NAGEL) according to the manufacturer's protocol.
The dsDNA from the TTR locus was amplified by PCR (using KAPA HiFi HotStart DNA polymerase (KAPA Biosystems)) using the genomic DNA as a template and the primer set shown in Table 4, and purified using a commercially available nucleic acid purification kit (ISOSPIN PCR Product, Nippon Gene).
The ssODN (5 equivalents relative to […]) was added to Cas9/sgTTR-RNP to form a TTR-RNP-ssODN complex. […] The reaction solution was then heated at 65° C. for 5 minutes to inactivate Cas9-RNP, and the dsDNA was then subjected to electrophoresis on a 3% agarose gel at 100 V for 40 minutes. After electrophoresis, the gel was stained (GelRed, Biotium) and visualized using a fluorescent/visible light gel imaging system (Printgraph CMOS I, ATTO). Bands were quantified using image analysis software (ImageJ).
DNA cleavage was calculated using the following formula: in the formula, Int_full and Int_cleaved indicate the intensities derived from full length (uncleaved) and cleaved DNA, respectively.

Data set [6] deals with TTR gene. The data set can be described thus: T7E1 assay on liver genomic DNA. The data set is classed as in vivo, mouse. To be noted: 2 mg RNP/kg iv two consecutive days, one week after final injection, CL4H6 LNP, n=3. How it is done: Lipid nanoparticles encapsulating TTR-RNP-ssODN complexes (TTR-RNP-ssODN-loaded lipid nanoparticles) were intravenously injected to BALB/c mice (female, 4 weeks old) at 2 mg RNP/kg body weight for two consecutive days. One week after the last injection, the mice were euthanized and liver tissues were harvested, flash frozen in liquid nitrogen, and stored at −80° C.
Genomic DNA was extracted and purified from the collected liver tissue using a commercially available nucleic acid extraction kit (NucleoSpin Tissue, MACHEREY-NAGEL) according to the manufacturer's protocol.
The T7E1 assay was performed using a commercially available genome editing detection kit (Alt-R®, Integrated DNA Technologies). The dsDNA treated with T7E1 was subjected to agarose gel electrophoresis in the same manner as in the above described <Measurement of In vitro DNA Cleavage Activity>, and the gel after electrophoresis was stained and the bands were quantified.

[7] abbreviates: Fluc mRNA-loaded LNP, cationic lipid/DSPC/cholesterol/PEG-DMG 50/10/40/1.5 mol%, Table 5.
Setting [8] is: TTR-RNP-ssODN-loaded LNP (ssODN-TTR_3-40%), cationic lipid/DSPC/cholesterol/PEG-DMG 50/10/40/3.5 mol%, Table 8.
The mark [9] stands for this setting: TTR-RNP-ssODN-loaded LNP, sgTTR-G211, CL4H6/DSPC/cholesterol/PEG-DMG 50/10/40/3.5 mol%, Table 11.
Setting [10] is: TTR-KO activity in mice, TTR-RNP-ssODN-loaded LNP CL4H6/DSPC/cholesterol/PEG-DMG 50/10/40/3.5 mol%, sgTTR-G211 (TTR_3) or sgTTR-G269 (TTR_4).

In data set [1] (setting [7]), `CCCCCC(CCCCC)CC(=O)OCCCCCCC(O)(CCCCCCOC(=O)CC(CCCCC)CCCCC)CCCCN(CCC)CCC` [CL4F8-b-5, 7-(4-(dipropylamino)butyl)-7-hydroxytridecane-1,13-diylbis(3-pentyloctanoate)] registered a Number-average particle diameter of 68.7 nm, a PdI of 0.185, a ζ-average of 106.3 nm and a ζ-potential of −5.16 mV. Besides, in data set [1] (setting [8]), the Number-average particle diameter is listed as 127.5 nm, the PdI worked out at 0.128, the ζ-average worked out at 178.0 nm and the ζ-potential is reported as −0.95 mV. The molecule further came in with an Encapsulation rate in data set [2] (setting [7]) of 91.0%. The molecule also had an Encapsulation rate in data set [2] (setting [8]) of 60.2%. Also, the “Fluc activity (gene transfer ability) in liver and spleen” value in the data set on BALB/c mice is recorded as “equal to or greater than that of CL4F6”. In addition, the pKa in data set [3] is 6.25. Besides, the “serum TTR activity / gene knockout versus CL4F6” value in the data set with TTR gene [4] (FIG. 5, TTR-RNP-ssODN-loaded LNP, mouse serum 7 days after administration) was “lower serum TTR activity and higher gene knockout”.

B1: ssODN-TTR_3-40%: ssODN pairing with sgTTR-G211, 40% matched; SEQ ID NO 7 (nucleic acid)
DNA: AAAAAAAAAAAAAAAAAAAAAAAAAAAAAAAAAAAAAAAAAAAAAAAAAAAAAAAAAAAAAAAGACGTGGAAAATTAAAAAAAAAAAAAAAAAAAAAAAAAAAAAAAAAAAAAAAAAAAAAAAAAAAAAAAA
For the molecule B1, in data set [1] (setting [9]), the Number-average particle diameter stood at 85.5 nm, the PdI is given as 0.094, the ζ-average is listed as 120.1 nm and the ζ-potential turned out to be 2.54 mV. In data set [2] (setting [9]), the Encapsulation rate turned out to be 86.0%. In data set [5], this molecule had an ID %/tissue blood of 7.57 ID %/tissue, an ID %/tissue kidney of 0.14 ID %/tissue, an ID %/tissue liver of 42.28 ID %/tissue and an ID %/tissue lung of 0.26 ID %/tissue. This molecule had an ID %/tissue spleen in data set [5] of 3.49 ID %/tissue. In addition, in the data set with dsDNA from the TTR locus (FIG. 7, TTR-RNP-ssODN, sgTTR-G211, 37° C. 30 min), the “in vitro DNA cleavage activity” value is reported as “about the same as that of TTR-RNP-ssODN containing ssODN-TTR_3-0%”. For the same molecule, the “relative DNA cleavage activity at 37° C.” value in the data set with dsDNA from the TTR locus (FIG. 22(A), sgTTR-G211 RNP, activity without ssODN = 100%) is “about the same as that of the RNP containing ssODN-TTR_3-0%”. For the same molecule, the “relative DNA cleavage activity at 15° C.” value in the data set on dsDNA from the TTR locus (FIG. 22(B), sgTTR-G211 RNP, activity without ssODN = 100%) was “higher than that of RNP containing ssODN-TTR_3-80%, but was clearly lower than that of RNP containing ssODN-TTR_3-0%”. Besides, the “KO activity at the DNA level” value in the data set on TTR gene [6] is recorded as 27%. In addition, the “reduction of serum TTR protein concentration compared to untreated mice” value with TTR gene [4] (2 mg RNP/kg iv two consecutive days, one week after final injection, CL4H6 LNP) came to 81%. Further, the “serum TTR activity / gene knockout activity” value in the data set with TTR gene [4] (FIG. 23, CL4H6 LNP prepared at 4° C., 2.0 mg RNP/kg, 7 days) is “low serum TTR activity, exhibiting sufficient gene knockout activity”. In the data set with TTR gene [4] (setting [10]), the “KO (%) 1st test” value is reported as 47.8% and the “KO (%) 2nd test” value stood at 56.5%. Also, the “TTR-KO activity (ranking among ssODNs)” value in the data set on TTR gene [4] (Table 10, CL4H6 LNP, per sgRNA) is “highest TTR-KO activity”.
